Read-outs that look alike come from different tables or passages of the source.
Key:
human B7-H4-Fc [1] = biological target: T1, human B7-H4-Fc (human); test: ELISA, coated hB7-H4-Fc
T1 construct: also called hB7-H4-Fc; hB7-H4 Fc
Protocol: (§1) ELISA experiments were performed to determine binding to hB7-H4-Fc (FIG. 4A), hB7-H4-his (FIG. 4B), hB7-H4 IgV domain (FIG. 4C), and mB7-H4 IgV domain (FIG. 4D). Flow cytrometry experiments were performed to determine binding to CHO cells expressing hB7-H4 (FIG. 4E) or mB7-H4 (FIG. 4F). […] A cross-reactive IgV binding antibody was used as a control.
(§2) About 1-2 μg/ml of human or mouse B7-H4-Fc (or his-tagged) was immobilized on ELISA plates (Immuno 2HB, Thermo scientific, cat #3455) at 4° C. overnight. After blocking the plates with 3% PBS+milk, serial diluted antibodies were added to the blocked plates and incubated at RT for 1-1.5 h. After washing the plates with PBS-T (0.05%), horse radish peroxidase (HRP)-conjugated antibody targeting the hFab was added to the plate. Signals were developed by adding 3,3′,5,5′-Tetramethylbenzidine (TMB (followed 1N of H₂SO₄ to stop the reaction. The OD at 450 nm was read by ELISA plate reader (Infinite M1000 from TECAN). GraphPad from Prism was used to plot OD450 vs. antibody concentration curve and to calculate the EC50 values.

mouse B7-H4-Fc [2] = biological target: T2, mouse B7-H4-Fc (mouse; human); test: ELISA, coated mB7-H4-Fc (title on the sheet: Binding to mB7H4-Fc)
T2 construct: also called mB7-H4-Fc; mB7-H4-hFc
Protocol: as §1, §2

mouse B7-H4-his = biological target: T3, mouse B7-H4-his (mouse, UniProt Q7TSP5 25-257); test: SPR (Biacore)
T3 construct: also called mB7-H4-his; mB7-H4-His; not shown: his tag
T3 sequence: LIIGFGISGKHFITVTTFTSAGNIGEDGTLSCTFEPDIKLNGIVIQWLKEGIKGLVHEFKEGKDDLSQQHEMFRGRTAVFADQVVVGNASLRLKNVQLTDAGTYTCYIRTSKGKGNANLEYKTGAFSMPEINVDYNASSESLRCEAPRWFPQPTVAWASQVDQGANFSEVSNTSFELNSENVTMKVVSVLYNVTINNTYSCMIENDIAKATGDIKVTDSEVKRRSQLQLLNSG

human B7-H4-Fc [3] = biological target: T1, human B7-H4-Fc; test: SPR (Biacore)
human B7-H4-his [4] = biological target: T4, human B7-H4-his (human, UniProt Q7Z7D3 25-259); test: SPR (Biacore)
T4 construct: also called hB7-H4-his; hB7-H4 his; not shown: his tag
T4 sequence: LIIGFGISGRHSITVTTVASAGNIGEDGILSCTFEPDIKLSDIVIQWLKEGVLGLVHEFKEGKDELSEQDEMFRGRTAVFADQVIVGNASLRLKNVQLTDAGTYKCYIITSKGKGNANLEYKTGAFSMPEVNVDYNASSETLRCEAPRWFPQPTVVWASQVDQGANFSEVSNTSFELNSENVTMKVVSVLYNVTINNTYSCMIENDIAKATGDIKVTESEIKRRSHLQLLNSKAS

[5] = biological target: T5, IgV domain of mouse B7-H4-Fc (mouse; human); test: ELISA, coated mB7-H4 IgV domain
T5 construct: also called mB7-H4 IgV domain
Protocol: as §1, §2

[6] = biological target: T6, mB7-H4 (soluble mouse B7-H4, construct not named) (mouse, UniProt Q7TSP5 25-257, limits assumed); test: summary of ELISA and flow cytometry
T6 sequence: T3 sequence

[7] = biological target: T7, mouse B7-H4 expressed on cells (mouse, UniProt Q7TSP5 25-257); test: flow cytometry, mB7H4 stable cells (CHO)
T7 construct: also called cellular mB7-H4; mB7-H4/CT26
T7 sequence: T3 sequence
Protocol: as §1
(§3) Cells were harvested, washed once, and then re-suspended to the concentration of 1×10⁶ cells/ml in ice cold FACS Buffer. 25 μl of cell suspension was added to each well of a 96-well round-bottom microliter plate. Serially diluted antibodies or fusion proteins were added to each well and incubated for 1 hour at 4° C. Cells were washed three times by centrifugation at 1500 rpm for 5 minutes, and then stained with secondary antibody (1:200 dilution) for 30 min at 4° C. in the dark. Cells were washed once, re-suspended in 100 μl PBS buffer and then analyzed using Guava Flow Cytometry EasyCyte system.

[8] = biological target: T8, IgV domain of human B7-H4-Fc (human); test: ELISA, coated hB7-H4 IgV domain
T8 construct: also called hB7-H4 IgV domain
Protocol: as §2

human B7-H4-Fc [9] = biological target: T1, human B7-H4-Fc; test: ELISA, coated hB7-H4-Fc; remark: listed apart in the source
Protocol: as §2

[10] = biological target: T7, mouse B7-H4 expressed on cells; test: flow cytometry, CHO cells expressing mB7-H4
mouse B7-H4-Fc [11] = biological target: T2, mouse B7-H4-Fc; test: ELISA, coated mB7-H4-Fc
How it was run: (§4)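 Human or mouse B7-H4-Fc (or his-tagged), about 1-2 μg/ml, was coated overnight at 4° C and blocked with 3% PBS+milk. Serially diluted antibodies bound for 1-1.5 h at RT, detected with HRP-conjugated anti-hFab and TMB, stopped with 1N H₂SO₄. EC50 came from OD450 versus antibody concentration curves.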

[12] = biological target: T5, IgV domain of mouse B7-H4-Fc; test: ELISA, coated mB7-H4 IgV domain; remark: listed apart in the source
How it was run: as §4

[13] = biological target: T5, IgV domain of mouse B7-H4-Fc; test: ELISA, coated mB7-H4 IgV domain; remark: listed apart in the source
[14] = biological target: T6, mB7-H4 (soluble mouse B7-H4, construct …); test: ELISA, mB7-H4
How it was run: as §4

[15] = biological target: T9, IgC domain of mouse B7-H4-Fc (mouse; human); test: ELISA, coated mB7-H4 IgC domain
T9 construct: also called mB7-H4 IgC domain
Protocol: as §2

mouse B7-H4-Fc [16] = biological target: T2, mouse B7-H4-Fc; test: SPR (Biacore)
[17] = biological target: T10, human B7-H4 expressed on cells (human, UniProt Q7Z7D3 25-282); test: flow cytometry, SK-BR-3 cells
T10 construct: Transfected CHO cells or tumor cell lines that carry hB7-H4; also called cellular hB7-H4
T10 sequence: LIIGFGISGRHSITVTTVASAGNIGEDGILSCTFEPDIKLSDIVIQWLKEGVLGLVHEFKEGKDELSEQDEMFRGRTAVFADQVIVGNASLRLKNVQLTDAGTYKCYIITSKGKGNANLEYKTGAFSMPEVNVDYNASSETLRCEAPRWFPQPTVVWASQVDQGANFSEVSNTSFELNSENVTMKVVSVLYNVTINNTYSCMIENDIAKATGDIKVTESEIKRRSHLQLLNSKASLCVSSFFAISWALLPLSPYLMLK
How it was run: (§5)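 Serially diluted antibodies or fusion proteins were incubated with cells at 1×10⁶ cells/ml in ice-cold FACS buffer for 1 h at 4 °C. After three washes, bound protein was detected with a 1:200 secondary antibody, 30 min at 4 °C in the dark, and read by flow cytometry.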

[18] = biological target: T7, mouse B7-H4 expressed on cells; test: flow cytometry, mB7-H4/CT26 cells
How it was run: as §5

[19] = biological target: T8, IgV domain of human B7-H4-Fc; test: ELISA, coated hB7-H4 IgV domain; remark: listed apart in the source
[20] = biological target: T11, IgC domain of human B7-H4-Fc (human); test: ELISA, coated hB7-H4 IgC domain
T11 construct: also called hB7-H4 IgC domain
Protocol: as §2

[21] = biological target: T6, mB7-H4 (soluble mouse B7-H4, construct …); test: SPR (Biacore)
How it was run: (§6)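 Ligands (human B7-H4-Fc, human B7-H4-his, mouse B7-H4-Fc) were amine-coupled to CM5 chips at 50-100 RU. Analyte was injected at 100 nM to 0.1 nM in HBS-EP, pH 7.4, at 25 °C, with 180 s association and 1000 or 1200 s dissociation. Kinetics were fitted to a 1:1 Langmuir model.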

[22] = biological target: T12, hB7-H4 (soluble human B7-H4, construct not named) (human, UniProt Q7Z7D3 25-259, limits assumed); test: SPR (Biacore)
T12 construct: also called soluble hB7-H4
T12 sequence: T4 sequence
How it was run: as §6

[23] = biological target: T12, hB7-H4 (soluble human B7-H4, construct …); test: ELISA, hB7-H4
How it was run: as §4

human B7-H4-his [24] = biological target: T4, human B7-H4-his; test: ELISA, coated hB7-H4-his
Protocol: as §2

human B7-H4-Fc [25] = biological target: T1, human B7-H4-Fc; test: ELISA, coated hB7-H4-Fc; remark: listed apart in the source
Protocol: (§7) ELISA experiments were performed to determine binding to hB7-H4-Fc (FIG. 5A), hB7-H4-his (FIG. 5B), mB7-H4-Fc domain (FIG. 5C), hB7-H4 IgV domain (FIG. 5D), and hB7-H4 IgC domain (FIG. 5E). Flow cytrometry experiments were performed to determine binding to CHO cells expressing hB7-H4 (FIG. 5F) or mB7-H4 (FIG. 5G). […] A cross-reactive IgV binding antibody and an IgC binding antibody were used as controls.
as §2

[26] = biological target: T7, mouse B7-H4 expressed on cells; test: flow cytometry, CHO cells expressing mB7-H4; remark: listed apart in the source
Protocol: as §7, §3

[27] = biological target: T8, IgV domain of human B7-H4-Fc; test: ELISA, coated hB7-H4 IgV domain; remark: listed apart in the source
Protocol: as §7, §2

[28] = biological target: T11, IgC domain of human B7-H4-Fc; test: ELISA, coated hB7-H4 IgC domain; remark: listed apart in the source
Protocol: as §7, §2

mouse B7-H4-Fc [29] = biological target: T2, mouse B7-H4-Fc; test: ELISA, coated mB7-H4-Fc; remark: listed apart in the source
Protocol: as §7, §2

T1 sequence (chain, as listed by the source): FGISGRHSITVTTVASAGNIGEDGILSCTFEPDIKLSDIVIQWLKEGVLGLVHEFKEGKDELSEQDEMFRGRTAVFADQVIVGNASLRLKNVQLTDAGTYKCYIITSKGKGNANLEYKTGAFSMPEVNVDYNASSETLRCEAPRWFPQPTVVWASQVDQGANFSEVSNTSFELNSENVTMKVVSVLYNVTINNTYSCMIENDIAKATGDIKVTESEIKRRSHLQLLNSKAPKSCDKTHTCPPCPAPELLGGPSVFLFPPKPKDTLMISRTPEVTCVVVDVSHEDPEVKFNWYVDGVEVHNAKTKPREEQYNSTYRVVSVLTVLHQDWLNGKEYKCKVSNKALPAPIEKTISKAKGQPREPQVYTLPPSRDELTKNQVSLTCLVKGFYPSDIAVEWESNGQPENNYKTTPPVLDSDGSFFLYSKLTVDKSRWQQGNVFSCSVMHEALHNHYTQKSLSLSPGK
T2 sequence (chain, as listed by the source): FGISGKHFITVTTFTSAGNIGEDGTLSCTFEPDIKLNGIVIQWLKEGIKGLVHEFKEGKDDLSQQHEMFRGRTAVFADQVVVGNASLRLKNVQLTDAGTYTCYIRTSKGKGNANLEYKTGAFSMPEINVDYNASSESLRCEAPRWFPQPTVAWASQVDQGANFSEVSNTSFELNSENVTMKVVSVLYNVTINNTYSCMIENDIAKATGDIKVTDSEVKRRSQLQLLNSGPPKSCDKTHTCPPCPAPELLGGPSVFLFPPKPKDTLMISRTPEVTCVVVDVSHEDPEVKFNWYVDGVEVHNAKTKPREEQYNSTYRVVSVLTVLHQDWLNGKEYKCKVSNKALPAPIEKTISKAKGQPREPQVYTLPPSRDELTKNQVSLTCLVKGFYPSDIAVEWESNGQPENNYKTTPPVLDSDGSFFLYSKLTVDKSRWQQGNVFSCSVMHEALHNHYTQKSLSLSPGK
T8 sequence (chain, as listed by the source): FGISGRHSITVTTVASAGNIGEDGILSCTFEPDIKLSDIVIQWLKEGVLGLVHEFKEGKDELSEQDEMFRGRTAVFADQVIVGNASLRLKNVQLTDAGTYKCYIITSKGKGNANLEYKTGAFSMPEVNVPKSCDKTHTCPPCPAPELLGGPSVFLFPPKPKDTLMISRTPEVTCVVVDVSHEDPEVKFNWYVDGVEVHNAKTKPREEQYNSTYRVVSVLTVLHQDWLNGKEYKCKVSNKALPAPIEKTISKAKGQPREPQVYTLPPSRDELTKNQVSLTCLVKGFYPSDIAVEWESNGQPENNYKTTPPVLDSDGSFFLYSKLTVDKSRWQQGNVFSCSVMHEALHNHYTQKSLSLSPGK
T5 sequence (chain, as listed by the source): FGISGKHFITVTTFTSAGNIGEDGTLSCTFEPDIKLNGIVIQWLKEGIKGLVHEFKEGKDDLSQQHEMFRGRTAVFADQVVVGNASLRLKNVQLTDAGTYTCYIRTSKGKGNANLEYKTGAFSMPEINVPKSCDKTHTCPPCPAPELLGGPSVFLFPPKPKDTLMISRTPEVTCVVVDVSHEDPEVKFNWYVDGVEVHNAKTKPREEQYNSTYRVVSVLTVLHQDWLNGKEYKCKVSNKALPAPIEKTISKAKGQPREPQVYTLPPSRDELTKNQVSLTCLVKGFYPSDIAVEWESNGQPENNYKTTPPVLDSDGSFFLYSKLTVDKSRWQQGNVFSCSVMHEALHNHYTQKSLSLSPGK
T11 sequence (chain, as listed by the source): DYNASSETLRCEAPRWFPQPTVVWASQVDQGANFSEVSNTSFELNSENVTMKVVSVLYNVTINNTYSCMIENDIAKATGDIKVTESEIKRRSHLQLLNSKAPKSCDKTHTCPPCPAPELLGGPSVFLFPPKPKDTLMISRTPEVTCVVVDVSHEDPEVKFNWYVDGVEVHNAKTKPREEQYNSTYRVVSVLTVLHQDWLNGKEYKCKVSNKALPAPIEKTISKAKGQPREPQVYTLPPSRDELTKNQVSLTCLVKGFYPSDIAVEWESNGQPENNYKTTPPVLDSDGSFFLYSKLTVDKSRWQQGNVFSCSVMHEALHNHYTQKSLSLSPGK
T9 sequence (chain, as listed by the source): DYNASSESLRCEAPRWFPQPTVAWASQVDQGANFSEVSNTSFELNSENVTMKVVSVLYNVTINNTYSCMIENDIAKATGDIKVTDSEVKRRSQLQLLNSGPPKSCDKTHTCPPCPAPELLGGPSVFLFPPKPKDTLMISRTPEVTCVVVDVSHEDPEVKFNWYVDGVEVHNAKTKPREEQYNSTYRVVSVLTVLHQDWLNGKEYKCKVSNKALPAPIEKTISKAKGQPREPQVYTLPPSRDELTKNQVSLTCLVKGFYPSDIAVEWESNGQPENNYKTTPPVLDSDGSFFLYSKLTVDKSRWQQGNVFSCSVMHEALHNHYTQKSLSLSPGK

B1: 4H6/4H6 (antibody, human IgG1, V domains shown)
VH: EVQLLESGGGLVQPGGSLRLSCAASGFTFSSYGMHWVRQAPGKGLEWVSGISGSGGSTYYADSVKGRFTISRDNSKNTLYLQMNSLRAEDTAVYYCARTQWRASLDPWGQGTLVNVSS
VL: DIQMTQSPSSLSASVGDRVTITCRASQDISYWLAWYQQKPGKAPKLLIYGASTLQSGVPSRFSGSGSGTDFTLTISSLQPEDFATYYCQQTTMSPYTFGQGTKVEIK
Human B7-H4-Fc [1]
  EC50 (read off the curve): ~0.01 µg/mL
Mouse B7-H4-Fc [2]
  binding result: no binding (tested: log 0.3 ug/ml (about 2 ug/ml))
Mouse B7-H4-his
  binding result: no binding
Human B7-H4-Fc [3]
  Kd: 2.86 nM
Human B7-H4-his [4]
  Kd: 4 nM
[5]
  binding result: no binding
[6]
  binding result: no binding
[7]
  binding result: no binding

B2: 4B9/4B9 (antibody, human IgG1, V domains shown)
VH: QVQLVQSGAEVKKPGASVKVSCKASGYTFTSYYMHWVRQAPGQGLEWMGWMNPNSGNTGYAQKFQGRVTMTRDTSTSTVYMELSSLRSEDTAVYYCARGQGRYLNYYYMDVWGKGTTVTVSS
VL: DIQMTQSPSSLSASVGDRVTITCRVSQGISNYLAWYQQKPGKAPKLLIYDASSLQSGVPSRFSGSGSGTDFTLTISSLQPEDFATYYCQQSYSTPFTFGPGTKVDIK
[8]
  binding result: no binding (tested: 20 nM)
Mouse B7-H4-his
  binding result: no binding
Human B7-H4-Fc [3]
  Kd: 2.89 nM
Human B7-H4-his [4]
  Kd: 4.13 nM
Human B7-H4-Fc [9]
  EC50 (read off the curve): ~0.07 nM
[10]
  binding result: no binding
[6]
  binding result: no binding
Mouse B7-H4-Fc [11]
  binding result: no binding (tested: 20 nM)
[12]
  binding result: no binding (tested: 20 nM)

B3: 39A11/39A11 (antibody, human IgG1, V domains shown)
VH: EVQLLESGGGLVQPGGSLRLSCAASGFTFSSYGMHWVRQAPGKGLEWVASISSSSGYIYYADSVKGRFTISRDNSKNTLYLQMNSLRAEDTAVYYCARASSGMDVWGQGTTVTVSS
VL: DIQMTQSPSSLSASVGDRVTITCRASQTIRSYLNWYQQKPGKAPKLLIYAASHLQSGVPSRFSGSGSGTDFTLTISSLQPEDFATYYCQQSYTTPYTFGQGTKLEIK
[13]
  EC50 (read off the curve): ~0.2 nM
[14]
  EC50: 0.136 nM
Human B7-H4-Fc [3]
  Kd: 0.926 nM
[15]
  binding result: no binding (tested: axis value -8 (labelled log nM))
Mouse B7-H4-Fc [16]
  Kd: 1.53 nM
[17]
  EC50: 4.17 nM
[18]
  EC50: 6.73 nM
[19]
  EC50 (read off the curve): ~0.3 nM
[20]
  binding result: no binding (tested: axis value -8 (labelled log nM))
[21]
  Kd: 13 nM
[22]
  Kd: 1.05 nM
[23]
  EC50: 0.08 nM

B4: 9H2/9H2 (antibody, V domains shown)
VH: QVQLVQSGAEVKKPGSSVKVSCKASGGTFSTYAINWVRQAPGQGLEWMGGINPMFGTARYAQKFQGRVTITADESTSTAYMELSSLRSEDTAVYYCARGRLHRHWGQGTLVTVSS
VL: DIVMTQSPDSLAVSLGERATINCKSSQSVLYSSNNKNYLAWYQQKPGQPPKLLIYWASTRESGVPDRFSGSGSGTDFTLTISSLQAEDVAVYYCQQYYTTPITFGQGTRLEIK
Human B7-H4-his [24]
  EC50 (read off the curve): ~0.06 nM
Human B7-H4-Fc [25]
  EC50 (read off the curve): ~0.07 nM
[26]
  binding result: no binding (tested: log 2.3 nM (about 200 nM))
[27]
  EC50 (read off the curve): ~0.07 nM
[6]
  binding result: no binding
[28]
  binding result: no binding (tested: log 0.3 ug/ml (about 2 ug/ml))
Mouse B7-H4-Fc [29]
  binding result: no binding (tested: log 1 nM (10 nM))

Reference: patent US20230312724A1 (KADMON, published 2023)
